Experimental data from patent US20020106374A1.

Target: HIV-1JR-FL envelope glycoproteins gp120/gp41 (HIV-1 JR-FL)
Assay: cell-based or functional assay

Row | Substance | IC90, inhibition of HIV-1JR-FL Env-mediated cell-cell fusion (RET assay) [nM] | IC90, inhibition of HIV-1JR-FL virus-cell fusion (luciferase reporter virus, HeLa-CD4+CCR5+ cells) [nM] | K (equal to IC50), inhibition of env-mediated membrane fusion (RET) between HeLa-EnvJR-FL and PM1 cells [µg/mL] | activity in the RET assay after co-incubation of HeLa-Env cells, PM1 cells and inhibitor for 2 h at 25° C., washing and warming to 37° C. [fold lower] | potency in the washout RET assay (drug pre-incubated with HeLa-Env cells, washed, then PM1 cells added) against the standard assay [fold lower] | increase in IC50 in the RET assay after co-incubation of HeLa-Env cells, PM1 cells and inhibitor for 2 h at 25° C., washing and warming to 37° C. (fold increase in IC50)
1 | CD4-IgG2 (from UniProt P01730 26-203; P01730 26-203) (Fc fusion) | 11 | 12 | 0.31 | 12 | 6 | 
2 | T-20 (peptide) | 22 | 45 | 0.017 |  |  | > 250
